Experimental data: patent US20210139568A1 (AXON NEUROSCIENCE, published 2021)
Where no end group is shown, it is not given here. [ ]: non-standard residue; d: D form. pT = C[C@@H](OP(=O)(O)O)[C@H](N)C(=O)O

B1: monoclonal antibody DC2E2 (antibody, V domains shown)
VH: EVQLQQSGAELVRPGALVKLSCKASGFNIKDYYMHWVRQRPDQGLEWIGWLDPENDHTIYDPRFQDRANLTADTSSNTAYLQLSSLTSEDTAVYYCSYYKYDDYWGQGTTLTVS
VL: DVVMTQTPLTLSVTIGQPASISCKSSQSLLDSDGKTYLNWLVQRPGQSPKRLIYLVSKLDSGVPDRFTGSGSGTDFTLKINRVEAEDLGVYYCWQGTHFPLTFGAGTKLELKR
notes: Used as hybridoma supernatant or Protein G purified; biotinylated as detector in the digital ELISA
B2: antibody DC149 (antibody, V domains shown)
VH: DVQLVESGGGLVQPGGSRKLSCAASGFTLSSFGMHWVRQAPEKGLEWVAYISSGSSTIYYADTVKGRFTISRDNPKNILFLQMTSLRSEDTAIYYCSRRLDYWGQGTSVTVS
VL: DIVITQDELSNPVTSGESVSISCRSSKSLLYKDGKTYLNWFLQRPGQSPQLLIYLMSTRASGVSDRFSGSGSGTDFTLEISRVKAEDVGVYYCQQFVEYPLTFGTGTKLELQR
notes: Mouse monoclonal antibody
B3: antibody DC807 (antibody, V domains shown)
VH: EVKLVESGGGLVKPGGSLKLSCAASGFTFSNYAMSWVRQNPEKRLEWVASISSGGTIYSPDSVKGRFTISRDNGRNILYLQMSSLRSEDTAMYSCARVNYDYGYAMDYWGQGTSVTVS
VL: DAVMTQTPLSLPVSLGDQASISCRSSQSLENSNGNTYLNWYLQKPGQSPQLLIYRVSNRFSGVLDRFSGSGSGTDFTLKISRVEAEDLGVYFCLQVTHVPWTFGGGTKLEIKR
notes: Mouse monoclonal antibody

Experiments:
[1] = target: T1, recombinant tau deletion mutant tau 1-242 (human, UniProt P10636 1-559); assay: hybridoma screening ELISA on coated tau 1-242
T1 construct: Numbered on tau 2N4R; It was the immunogen for DC2E2
Description: The plates were blocked with 1% nonfat dried milk to reduce nonspecific binding, washed with PBS-0.05% Tween 20, and incubated with 50 μl/well of hybridoma culture supernatant for 1 hr at 37° C. Bound monoclonal antibodies were detected with sheep anti-mouse immunoglobulin (Ig) conjugated with horse radish peroxidase (HRP, DAKO). The reaction was developed with TMB one (Kem-En-Tec Diagnostics) as a peroxidase substrate and stopped with 50 μl of 2 M H₂SO₄. Absorbance at 450 nm was measured using a Powerwave HT (Bio-Tek). Readouts with an absorbance value of at least twice the value of the negative controls (PBS) were considered positive. Positive hybridoma cultures were further subcloned in soft agar according to the procedure described in Kontsekova et al., One-step method for establishing 8-azaguanine-resistant hybridomas suitable for preparation of triomas, J. Immunol. Methods, 145, 247-250 (1991).

[2] = target: T2, recombinant human tau isoform 1N4R (human, UniProt P10636-7 2-412); assay: ELISA, coated recombinant tau protein, hybridoma supernatant
T2 construct: mature
Description: (§1) Deletion mutants of human tau protein 2N4R were used for epitope mapping of DC2E2 using ELISA (FIG. 2A). Recombinant human tau isoforms 2N4R, 1N4R, 2N3R, 0N4R, 1N3R, 0N3R and tau deletion mutants were prepared as described in Example 1. Microtiter plates were coated overnight at 37° C. with recombinant tau proteins ([…] in PBS, 50 μl/well). The plates were blocked with PBS-Tween20 (0.1% v/v) to reduce nonspecific binding and were incubated with 50 μl/well of DC2E2 hybridoma culture supernatant, for 1 hr at 37° C. Bound monoclonal antibody was detected with sheep anti-mouse Ig HRP-conjugated (DAKO). The reaction was developed with TMB one solution (Kem-En-Tec Diagnostics) as a peroxidase substrate and stopped with 50 μl of 2M H₂SO₄. Absorbance was measured at 450 nm using a Powerwave HT (Bio-Tek). Readouts with an absorbance value of at least twice the value of the negative controls (PBS) were considered positive.

[3] = target: recombinant tau deletion mutant tau 99-441 (human, UniProt P10636 99-758); assay: as above
Description: as §1

[4] = target: T3, recombinant human tau isoform 0N4R (human, UniProt P10636-6 2-383); assay: as above
T3 construct: mature
Description: as §1

[5] = target: recombinant tau deletion mutant tau 31-441 (human, UniProt P10636 31-758); assay: as above
Description: as §1

[6] = target: recombinant tau deletion mutant tau 127-441 (human, UniProt P10636 378-758); assay: as above
Description: as §1

[7] = target: T4, recombinant human tau isoform 2N3R (human, UniProt P10636-5 2-410); assay: as above
T4 construct: mature
Description: as §1

[8] = target: T5, recombinant human tau isoform 1N3R (human, UniProt P10636-4 2-381); assay: as above
T5 construct: mature
Description: as §1

[9] = target: recombinant tau deletion mutant tau 1-226 (human, UniProt P10636 1-543); assay: as above
Description: as §1

[10] = target: T6, recombinant human tau isoform 0N3R (human, UniProt P10636-2 2-352); assay: as above
T6 construct: mature
Description: as §1

[11] = target: recombinant truncated tau151-391 (unphosphorylated) (human, UniProt P10636 468-708); assay: as above
Description: as §1

[12] = target: T7, recombinant tau deletion mutant tau2N4RΔ(134-168) (human, UniProt P10636 1-758); assay: ELISA, coated recombinant tau proteins, DC2E2 hybridoma supernatant
T7 construct: Tau 2N4R with residues 134-168 deleted; also called tau 2N4R(A134-168)
Description: as §1

[13] = target: recombinant tau deletion mutant tau 1-136 (human, UniProt P10636 1-387); assay: as above
Description: as §1

[14] = target: recombinant tau deletion mutant tau 221-441 (unphosphorylated) (human, UniProt P10636 538-758); assay: as above
Description: as §1

[15] = target: in vitro phosphorylated tau151-391 (human, UniProt P10636 468-708, phosphorylated in vitro with rat brain kinase extract; the phosphorylated sites are not listed); assay: immunoblot
Description: (§2) Adult rat brain (1 g/2.5 ml) was homogenized in kinase buffer (10 mM TRIS-HCl, pH 7.4; 5 mM EGTA, 2 mM DTT; 1 mM PMSF; 2 mM MgCl₂, leupeptin ([…]), pepstatin ([…]), aprotinin ([…])) and after centrifugation at 100,000×g for 30 min at 4° C. the supernatant (kinase extract) was used for the phosphorylation of tau. The phosphorylation reaction was carried out at 37° C. in 10 mM TRIS-HCl, pH 7.4; 5 mM EGTA, 2 mM DTT; 1 mM PMSF; leupeptin (20 μg/ml); pepstatin (20 μg/ml); aprotinin (20μg/ml); 2 mM ATP; 2 mM MgCl₂ and 10 μM okadaic acid. The brain kinase extract (5μl) was added to 50 μl tau solution (1 μM) and reaction was incubated at 37° C. for 24 h. The phosphorylation of tau was analysed by SDS-PAGE and immunoblotting using rabbit anti-serum raised against six recombinant human tau isoforms (Csokova et al., Rapid purification of truncated tau proteins: model approach to purification of functionally active fragments of disordered proteins, implication for neurodegenerative diseases, Protein Expression and Purification, 35:366-372, 2004).
(§3) Soluble tau proteins were diluted with an equal volume of 2×SDS (sodium dodecylsulfate) sample loading buffer (with β-mercaptoethanol) (Laemmli, 1970) and 250 ng of proteins were loaded per lane. […]

[16] = target: T8, in vitro phosphorylated human tau 2N4R (human, UniProt P10636 1-758, phosphorylated in vitro with rat brain kinase extract; the phosphorylated sites are not listed); assay: immunoblot
T8 construct: also called phosphorylated tau 2N4R; 2N4R in vitro phosphorylated
Description: as §2, §3

[17] = target: B1; assay: competition ELISA, peptide 0.3-200 µM pre-incubated with DC2E2, plates coated with tau 1-242
Description: (§4) The plates were washed 4 times with PBS/Tween 20 (0.1% v/v), and blocked with PBS/Tween 20 for 2 h at 25° C. Peptides were separately dissolved in PBS at a final concentration of 5 mM. Serial dilutions (2,5-fold) of the peptides in PBS/Tween 20 were prepared in polypropylene plates with conical well bottom (Greiner, #651201) (concentration range 200 μM, 32 μM, 12.8 μM, 5.1 μM, 2 μM, 0.8 μM, and 0.3 μM). 60 μl of each dilution were added per well. Purified DC2E2 was diluted to a concentration of 0.6 μg/ml in PBS/Tween 20 and 60 μl of this diluted antibody was mixed with each serial dilution of peptides resulting in 120 μl mixtures with […] of antibody/60μl containing each respective test peptide at a concentration of 200 μM, 32 μM, 12.8 μM, 5.1 μM, 2 μM, 0.8 μM, and 0.3 μM. The antibody/peptide mixtures were incubated for 1 hr at 25° C. on a rotating platform set to 250 rpm. […] The plates were washed 4× times with PBS/Tween 20 and incubated for 1 hr at 25° C. on a rotating platform (set to 250 rpm) with 50 μl of Polyclonal Goat Anti-Mouse Immunoglobulins/HRP (Dako, #P0447) diluted 1:1000 in PBS/Tween 20. The plates were washed 4× times with PBS/Tween and then incubated with 50 μl/well of TMB one solution (Kem-En-Tec Diagnostics) as a peroxidase substrate. The reaction was stopped by adding 50 μl of 2 M H₂SO₄ (Merck). Absorbance was measured at 450 nm using a Powerwave HT (Bio-Tek).

[18] = target: T9, monoclonal antibody DC2E7; assay: competition ELISA, peptide pre-incubated with DC2E7
T9 construct: also called DC217 (apparent misprint)
Description: In order to examine the effect of residues in the region of DC2E7 epitope on antibody binding, synthetic peptides of different lengths carrying different phospho-sites were analyzed in competitive ELISA. […] Each synthetized peptide contained phospho-site(s) located around the residue Thr217, except of unphosphorylated peptide tau 201-229 (used as negative control).
ELISA plates (Nunc Medisorp, Thermo Scientific, Denmark) were coated overnight at 37° C. with 50 μl/well of PHF-tau, diluted 200× in PBS. The coated plates were washed 5 times with PBS/Tween 20 (0.05% v/v), and blocked with PBS/Tween 20 for 1 h at 25° C. Each of the peptides was separately dissolved in PBS at a final concentration of 1 mM. Serial dilutions (2.5×) of peptides in PBS/Tween 20 were prepared in polypropylene microtiter plates with conical well bottom (Greiner) within the concentration range of 200 μM; 80 μM; 32 μM; 12.8 μM; 5.12 μM; 2.048 μM; 0.8192 μM; 0.32768 μM). The monoclonal antibody DC2E7 was diluted to a concentration of 0.6 μg/ml in PBS and 60 μl of this diluted antibody was added into each well to serial dilution of peptides resulting in 120 μl/well of mixture. The antibody/peptide mixtures were incubated for 1 hr at 25° C. on a rotating platform set to 230 rpm.

[19] = target: unphosphorylated tau protein (UniProt P10636-8 1-441, limits assumed); assay: ELISA
[20] = target: B1; assay: competition ELISA, peptide pre-incubated with DC2E2, plates coated with tau 1-242
Description: as §4

T9 sequence (VL, as listed by the source): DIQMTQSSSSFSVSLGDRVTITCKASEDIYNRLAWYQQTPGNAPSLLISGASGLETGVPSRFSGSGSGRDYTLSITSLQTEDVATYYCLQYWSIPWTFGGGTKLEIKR
Sequence of unphosphorylated tau protein (P10636 other isoform, or with tags, fused parts or gaps limits assumed): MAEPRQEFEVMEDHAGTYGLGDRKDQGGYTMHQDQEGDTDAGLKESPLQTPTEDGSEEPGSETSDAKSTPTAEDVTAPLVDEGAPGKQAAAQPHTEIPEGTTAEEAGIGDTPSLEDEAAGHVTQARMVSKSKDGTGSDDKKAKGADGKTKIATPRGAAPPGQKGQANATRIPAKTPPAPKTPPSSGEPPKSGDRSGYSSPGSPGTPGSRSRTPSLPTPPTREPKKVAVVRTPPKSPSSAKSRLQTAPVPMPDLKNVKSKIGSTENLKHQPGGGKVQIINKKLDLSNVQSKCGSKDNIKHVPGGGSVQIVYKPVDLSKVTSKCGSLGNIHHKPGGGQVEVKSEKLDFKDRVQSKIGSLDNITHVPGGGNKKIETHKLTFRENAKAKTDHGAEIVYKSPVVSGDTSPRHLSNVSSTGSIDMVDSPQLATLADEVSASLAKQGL
T7 sequence (P10636 other isoform, or with tags, fused parts or gaps mutant): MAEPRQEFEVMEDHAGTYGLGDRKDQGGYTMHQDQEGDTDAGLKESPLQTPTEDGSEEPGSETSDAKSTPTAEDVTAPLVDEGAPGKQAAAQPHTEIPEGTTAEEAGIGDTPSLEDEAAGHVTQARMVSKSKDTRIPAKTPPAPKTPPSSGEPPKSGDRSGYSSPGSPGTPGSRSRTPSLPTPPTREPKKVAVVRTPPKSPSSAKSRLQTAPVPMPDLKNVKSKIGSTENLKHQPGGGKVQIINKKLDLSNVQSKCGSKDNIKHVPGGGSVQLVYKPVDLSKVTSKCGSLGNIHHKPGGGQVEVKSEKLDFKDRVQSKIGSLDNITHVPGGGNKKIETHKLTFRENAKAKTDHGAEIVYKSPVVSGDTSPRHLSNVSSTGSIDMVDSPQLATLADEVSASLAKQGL
Sequence of recombinant tau deletion mutant tau 221-441 (unphosphorylated) (P10636 other isoform, or with tags, fused parts or gaps mutant): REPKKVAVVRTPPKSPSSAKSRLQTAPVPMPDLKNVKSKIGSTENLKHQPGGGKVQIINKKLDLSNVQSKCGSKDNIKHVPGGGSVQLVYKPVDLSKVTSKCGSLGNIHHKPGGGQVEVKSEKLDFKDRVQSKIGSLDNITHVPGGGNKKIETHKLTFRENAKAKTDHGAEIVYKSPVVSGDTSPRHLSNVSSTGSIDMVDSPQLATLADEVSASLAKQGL
Sequence of recombinant tau deletion mutant tau 31-441 (P10636 other isoform, or with tags, fused parts or gaps mutant): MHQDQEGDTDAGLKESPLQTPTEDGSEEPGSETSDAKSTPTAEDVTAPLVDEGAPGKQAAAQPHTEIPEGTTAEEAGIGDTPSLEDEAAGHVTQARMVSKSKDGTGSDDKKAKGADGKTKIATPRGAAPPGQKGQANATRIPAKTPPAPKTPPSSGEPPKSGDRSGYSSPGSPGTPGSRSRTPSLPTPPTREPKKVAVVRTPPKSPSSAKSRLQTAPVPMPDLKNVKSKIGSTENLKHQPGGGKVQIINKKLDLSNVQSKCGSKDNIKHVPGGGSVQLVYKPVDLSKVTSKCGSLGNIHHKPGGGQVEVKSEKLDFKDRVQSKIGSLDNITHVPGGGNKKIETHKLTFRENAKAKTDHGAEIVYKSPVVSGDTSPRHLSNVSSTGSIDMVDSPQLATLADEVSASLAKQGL
Sequence of recombinant tau deletion mutant tau 1-226 (P10636 other isoform, or with tags, fused parts or gaps mutant): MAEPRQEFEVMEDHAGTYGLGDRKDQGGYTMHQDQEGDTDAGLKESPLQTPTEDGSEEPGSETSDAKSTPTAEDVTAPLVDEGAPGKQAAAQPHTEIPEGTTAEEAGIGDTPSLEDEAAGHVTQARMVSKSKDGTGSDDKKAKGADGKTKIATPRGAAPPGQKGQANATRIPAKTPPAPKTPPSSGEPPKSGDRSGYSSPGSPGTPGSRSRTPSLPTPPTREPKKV
Sequence of recombinant truncated tau151-391 (unphosphorylated) (P10636 468-708 I625L): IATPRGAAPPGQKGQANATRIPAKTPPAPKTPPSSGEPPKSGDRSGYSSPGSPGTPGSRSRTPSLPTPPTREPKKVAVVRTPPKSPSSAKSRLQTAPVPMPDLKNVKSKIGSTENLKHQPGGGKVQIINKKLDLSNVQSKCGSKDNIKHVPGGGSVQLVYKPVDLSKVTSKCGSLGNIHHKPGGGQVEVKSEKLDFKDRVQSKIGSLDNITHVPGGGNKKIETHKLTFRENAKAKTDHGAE
Sequence of in vitro phosphorylated tau151-391 (P10636 468-708 I625L): as above
T3 sequence (P10636 other isoform, or with tags, fused parts or gaps): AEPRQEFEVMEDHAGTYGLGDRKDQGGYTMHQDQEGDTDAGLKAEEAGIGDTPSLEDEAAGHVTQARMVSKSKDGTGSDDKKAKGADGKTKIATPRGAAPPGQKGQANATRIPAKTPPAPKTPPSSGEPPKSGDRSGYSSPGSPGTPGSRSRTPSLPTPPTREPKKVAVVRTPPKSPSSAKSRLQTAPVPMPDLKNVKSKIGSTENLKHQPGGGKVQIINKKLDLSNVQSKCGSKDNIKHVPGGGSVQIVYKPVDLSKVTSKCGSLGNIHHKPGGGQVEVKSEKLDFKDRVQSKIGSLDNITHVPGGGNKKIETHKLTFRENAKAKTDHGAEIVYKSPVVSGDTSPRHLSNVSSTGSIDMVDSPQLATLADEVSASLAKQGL
T4 sequence (P10636 other isoform, or with tags, fused parts or gaps): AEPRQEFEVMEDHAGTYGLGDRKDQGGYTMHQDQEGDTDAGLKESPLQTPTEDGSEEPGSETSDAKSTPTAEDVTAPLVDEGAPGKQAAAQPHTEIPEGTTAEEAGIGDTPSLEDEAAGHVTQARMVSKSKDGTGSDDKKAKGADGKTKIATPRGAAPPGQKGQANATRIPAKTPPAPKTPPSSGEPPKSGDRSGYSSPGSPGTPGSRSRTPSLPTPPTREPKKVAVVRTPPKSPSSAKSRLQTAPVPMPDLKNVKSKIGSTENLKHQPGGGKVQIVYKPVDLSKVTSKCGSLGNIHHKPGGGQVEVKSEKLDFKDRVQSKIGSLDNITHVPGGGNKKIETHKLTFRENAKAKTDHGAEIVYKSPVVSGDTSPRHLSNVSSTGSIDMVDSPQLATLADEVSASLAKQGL
T5 sequence (P10636 other isoform, or with tags, fused parts or gaps): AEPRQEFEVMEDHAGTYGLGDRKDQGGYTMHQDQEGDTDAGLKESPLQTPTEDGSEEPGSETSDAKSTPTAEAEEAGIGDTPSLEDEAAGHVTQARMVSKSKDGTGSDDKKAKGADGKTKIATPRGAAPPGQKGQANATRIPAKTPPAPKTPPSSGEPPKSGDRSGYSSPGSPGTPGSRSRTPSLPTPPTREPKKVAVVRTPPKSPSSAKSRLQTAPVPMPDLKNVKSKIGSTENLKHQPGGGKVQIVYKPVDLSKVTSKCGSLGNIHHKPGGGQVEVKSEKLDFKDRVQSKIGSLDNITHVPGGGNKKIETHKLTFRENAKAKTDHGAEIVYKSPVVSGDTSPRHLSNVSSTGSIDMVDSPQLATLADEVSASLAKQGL
T6 sequence (P10636 other isoform, or with tags, fused parts or gaps): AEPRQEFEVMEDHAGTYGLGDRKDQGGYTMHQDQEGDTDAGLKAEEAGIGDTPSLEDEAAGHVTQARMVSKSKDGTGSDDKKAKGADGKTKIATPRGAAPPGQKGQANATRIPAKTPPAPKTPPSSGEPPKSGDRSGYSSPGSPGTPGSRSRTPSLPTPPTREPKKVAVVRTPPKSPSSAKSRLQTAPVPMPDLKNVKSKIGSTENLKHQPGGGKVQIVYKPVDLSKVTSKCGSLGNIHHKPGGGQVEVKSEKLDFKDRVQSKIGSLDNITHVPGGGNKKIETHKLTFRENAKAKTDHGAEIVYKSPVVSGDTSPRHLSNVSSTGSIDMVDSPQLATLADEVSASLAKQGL
T1 sequence (P10636 other isoform, or with tags, fused parts or gaps mutant): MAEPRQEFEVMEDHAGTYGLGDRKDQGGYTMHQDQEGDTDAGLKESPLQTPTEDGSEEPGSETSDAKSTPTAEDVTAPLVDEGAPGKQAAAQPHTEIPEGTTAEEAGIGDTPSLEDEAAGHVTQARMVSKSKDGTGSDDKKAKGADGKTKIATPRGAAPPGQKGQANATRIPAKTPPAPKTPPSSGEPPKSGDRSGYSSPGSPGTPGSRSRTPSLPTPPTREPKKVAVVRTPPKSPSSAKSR
T2 sequence (P10636 other isoform, or with tags, fused parts or gaps): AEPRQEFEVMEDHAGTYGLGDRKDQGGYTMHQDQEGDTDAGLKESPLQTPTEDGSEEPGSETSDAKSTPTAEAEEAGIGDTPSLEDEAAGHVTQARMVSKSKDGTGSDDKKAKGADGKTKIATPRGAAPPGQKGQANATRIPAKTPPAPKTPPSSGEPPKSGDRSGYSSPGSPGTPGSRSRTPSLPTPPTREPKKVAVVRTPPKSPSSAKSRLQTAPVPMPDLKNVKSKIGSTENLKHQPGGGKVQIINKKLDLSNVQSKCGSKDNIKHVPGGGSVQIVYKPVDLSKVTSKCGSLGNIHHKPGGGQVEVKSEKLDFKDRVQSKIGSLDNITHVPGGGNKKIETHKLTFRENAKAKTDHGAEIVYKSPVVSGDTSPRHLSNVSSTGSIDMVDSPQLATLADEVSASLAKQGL
Sequence of recombinant tau deletion mutant tau 1-136 (P10636 other isoform, or with tags, fused parts or gaps mutant): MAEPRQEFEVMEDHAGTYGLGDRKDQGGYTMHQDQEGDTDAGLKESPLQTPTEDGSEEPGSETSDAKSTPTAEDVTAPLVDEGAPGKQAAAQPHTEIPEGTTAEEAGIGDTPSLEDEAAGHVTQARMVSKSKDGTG

B1
binding result [1]: binds | binding result [2]: binds | binding result [3]: binds | binding result [4]: binds | binding result [5]: binds | binding result [6]: binds | binding result [7]: binds | binding result [8]: binds | binding result [9]: binds | binding result [10]: binds | binding result [11]: binds | binding result [12]: no binding | binding result [13]: no binding | binding result [14]: no binding | binding result [15]: binds | binding result [16]: binds

GQKGQANATRIPAKTPPAPKTPPSSGEPPK [synthetic peptide tau 161-190]
binding result [17]: binds

SR[pT]PSLP[pT]PPT [synthetic phosphopeptide tau 210-220/pT212/pT217]
binding result [18]: no binding (tested: peptide up to 200 µM)

SR[pT]PSLP[pT]PP [synthetic phosphopeptide tau 210-219/pT212/pT217]
binding result [18]: no binding (tested: peptide up to 200 µM)

SR[pT]PSLP[pT]P [synthetic phosphopeptide tau 210-218/pT212/pT217]
binding result [18]: no binding (tested: peptide up to 200 µM)

B2
binding result [19]: no binding

B3
binding result [19]: no binding

KAKGADGKTKIATPRGAAPPGQKGQANATR [synthetic peptide tau 141-170]
binding result [20]: no binding (tested: peptide up to 200 µM)

IPAKTPPAPKTPPSSGEPPKSGDRSGYSSP [synthetic peptide tau 171-200]
binding result [20]: no binding (tested: peptide up to 200 µM)

TPPSSGEPPKSGDRSGYSSPGSPGTPGSRS [synthetic peptide tau 181-210]
binding result [20]: no binding (tested: peptide up to 200 µM)
